Our source for the Kd values is PMC7561547 (2020).

The target in this assay is FGFR2b (Homo sapiens, UniProt P21802). The assay can be described thus: SPR. Background: In SPR one partner is held on a chip, and binding of the other changes the refractive index at the surface.

B1: bemarituzumab (antibody, V domains shown)
VH: QVQLVQSGAEVKKPGSSVKVSCKASGYIFTTYNVHWVRQAPGQGLEWIGSIYPDNGDTSYNQNFKGRATITADKSTSTAYMELSSLRSEDTAVYYCARGDFAYWGQGTLVTVSS
VL: DIQMTQSPSSLSASVGDRVTITCKASQGVSNDVAWYQQKPGKAPKLLIYSASYRYTGVPSRFSGSGSGTDFTFTISSLQPEDIATYYCQQHSTTPYTFGQGTKLEIKR
Regarding B1, binding was characterised by a dissociation constant (Kd) of 580 pM.
